From the nanobody polyreactivity screen of Harvey et al. (2022)

Test: yeast display, Sf9 membrane polyspecificity reagent, FACS + sequencing; frameworks hold sequencing errors
How it was run: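 In a synthetic yeast display library (Saccharomyces cerevisiae BJ5465), nanobody expression was induced with galactose for 36–48 hours. FACS gates were set low and high (top ~1%) using anti-HA fluorescence for expression and streptavidin fluorescence for binding of the Sf9 membrane reagent. Each polyreactivity label is drawn from the gate of origin.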

Row | Sequence | polyreactivity (PSR sort gate)
1 | QVQLVESGRGLVQAGGSLRLSCAASGRIFGIYAMGWHRQAPGKEMELVATITDGTITNYADSVKGRFTISRDNAKNTVYLQMNSLKPEDTAVYYCAAGTQAHAYVVRPIEMDYWGQGTQVTVSS | low polyreactivity
2 | QVQLVESGGGLVHAGGILRLSCAASGSTFTPNAMGWYRQAPGKEREFVAAITYSGGTTYNADSVKGRFTISRDNAKKTVYLQRNRLKPEDTAVYYCAAVYFLLYYEAYYYWGQGTQVNVSS | low polyreactivity
3 | QLQLVESGGGLVQAGGSLRLICAASGLIFFWYTMGWYRQAPGKDRELVAAIDSGGSTYYADSVKGRFTNSRDNAKYTVYLEMISLKPEDTAVYYCAADSFYLYIEYYYWGQGTQVTVSS | high polyreactivity
4 | QVQLVESGGGLVQAGGSLRLSCAASGSIFVENAMGWYRQAPGEERELVAAISSSGDSTYYADSVKGRFTISRDNAKNTVYLQINSLKPEDTAVYYCNRRRPRYYWGQGTQVTVSS | high polyreactivity
5 | QVQLVESGGGLVQAGGSLRLSCAASGSIFYYNAMGWSRQAPGKERELVAAIRSTGSSNDADSVKGRFTISRDNAKNTVYLQMNSLKPEDTAVYYCAADQYGRSRDYGYGYWGHGTQVTVSS | low polyreactivity
6 | QVQLVESGGCLVQAGGSLRLSCAASGSIFVSYAMGWYRQAPGTERELVAAITGRTGSTYYADSVKGRFTISRDNAQNTVYLQMNSLKPEDTEVYYCAARHKPHHRYDYWGQGTQVTVSS | low polyreactivity
7 | QVQLVESGGGLVQAGGSLRLSCAASGSIFATNAMGCYRQAPGKERELVAAISRSGASTYYADSVKGRFTISRDNAKHTVYLQMNRLKPEDTAVYYCNKVLYRDAYQSYGFDYWGQGTQVTVSS | high polyreactivity
8 | QVQLVESGGGLVQAGGSLRLSCAASGRTFVRYAMGWYRQAPGKEREFVAAITGSGGITYYADSVKGRFTISRDNAKNTVYLQMNSLKPEDTAVYYCAARGGFGRYWYDYWGQGTQVTVSS | high polyreactivity
9 | QVQLVESGGGLEQAGGSLRLSCAASGRTFYYYAMGWYRQAPGKERELVAAIRWRGGRTYADSVKGRFTISRDNAKNTVYLQMKSLKPEDTAVYYCAVDSFYRHASLYDYWGQGTQVTVSS | high polyreactivity
10 | QVHLVESGGGLVQAGGSLRLSCAASGITFQRYAMGWYREAPGKERELVASISTNGGTTYYADSVKGRFTISRHNAKNTVYLQMNSLKPEDTAVYYCNAESGYVYYIRYNYWGQGTQVTVSS | high polyreactivity
11 | QVQLVESGGGLVQAGGSLRLSCAASGSIFGFNAMGWYRPAPGKERELVAGITSGDRTNYADSVKGRFTISRDNAKNTVYLQMNSLKPEDTAVYYCAARKYVFFKMYYWGQGTQVTVSS | low polyreactivity
12 | QVQLVESGGGLVQAGGSLSLSCAASGFTVKFYAMGWYRQAPGKERELVATISSRGTSTYYADSVKGRFTISRDNAKNTVYLQMNSLKPEDTAVYYCAAAWFPAYQYRYYYWGQGTQVTVSS | high polyreactivity
13 | QVQLVESGGGLVQAGGSLRLSCAASGSTFFPNGMGWYRQARGKEWELVAAITQDGGSTYYADSVKGRFTISRDNAKNTVYLQMNSLNPEDTAVYYCAASAGPYYEYGYWGQGTQVTVSS | low polyreactivity
14 | QGQLVESGGGLVQAGGSLRLSCAASGRIFRGYAMGWYRQGPGNEREWVAAFSRRGGSTYYADSVKGRFTISRDNAKNTVYLQMNSLKPVDTAVYYCNADGVHYVAYAGGYWGQGTQVTVSS | high polyreactivity
15 | QVQLVESGGGLVQAGGSLRLSCAASGRIFRYYTMGWYRQAHGKEREFVATITSSGGSTNYADSVKGRFTISRDNAKNSVYIQTNSLKPEDTAVYYCAKTSRAPWDGYYWGEGTQVTVSS | low polyreactivity
16 | QVQLVESGGGLVQAGGSLRLSCAASGSTHNQNAMGWSRQAPGKETELVAAISSNGGTTYYADSVKWRFTISRDNAKNTVYLQMNSLKQEDTAVYYCAADWDRYVPRSYYRVSWYDYWGQGTQVTVSS | low polyreactivity

Row | Sequence | polyreactivity (PSR sort gate)
17 | QVQLVESGGGLVQAGGSLRLSCAASGSTFSGYAMGWYRHAPGKERELVAAISRRGTSTYYADSVKGRFTISRDNAKNTVYLQMNSLKPEDTAVYYCAARPSGYVIGGYGYWGQGTQVTVSS | high polyreactivity
18 | QVQLVESGGGLVQAGGSLRLSCAASGSIFVHYAMGWYRQAPGKERELVARISWRGNTYYADSVKGRFTISRDNAKNTVYLQMNSLKPEDTAVYYCATGQSVIYRYEYWGQGTQVTVSS | low polyreactivity
19 | QVQLVESGGGLVQAGGSLRLSCAASGFIFFYYAMGWYRQAPGKERELVASINWSGGRTYYADSVKGRFTISRDNAKNTVYLQMNSLKPEDTAVYYCAADRRFSTYDYWGQGTQVTVSS | high polyreactivity
20 | QVQLVESGGGLVQAGGSLRLSCAASASIFAYNAMGWYRQAPGKERELVAAISYSGASTYYADSVKGRFTISRDYAKNTVYLQMNSLKPEDTAVYYCAATSRRRGTKGYWQVWPRFDYWGQGTQVTVSS | high polyreactivity
21 | QVQLVESGGGLVQAGGSLSLSCAASGSIFQKYTMGWYRQAPRKERELVAAITRSGGSTYYADSVKGRFTISRDNAKNTVYLQMNSLKAEDSAVYYCNKRYIPWAYDYWGQGTQVTVSS | high polyreactivity
22 | QVQLVESGGGLVQAGGSLRLSCAASGFTFGSNAMGWYRQAPGKEREFVAAITYSGGGTYADSVKGRFTISRDNAKNTVDLQMNSLKPEDTAVYYCATDAYRWHYWNFGFGYWGQGTQVTVSS | high polyreactivity
23 | QVQLVESGGGLVQAGGSLRLSCAASGITLGRYAMGWYRQAPGQERELVAAISSWSGGSTTYADSVKGRFTISRDNAKNTVYLQMNSLKPEDTAVYYCNARRYYGRYYLGHSDYDYWGQGTQVTVSS | high polyreactivity
24 | QVQLVESGGGLVQAGGSLRLSCAASGSIFKYNAMGWYRPAPGKERELVAAISWSGGSTRYADSLKGRFTISRDNATNTGYLQMNSLKPEDTAVYYCAAKHGRNYAANALYGYWGQGTQVTVSS | high polyreactivity
25 | QVHLVESGVGLVQAGGSLRLSCASSGSTYKPNALGWYSQAPGKESEFVAAITSGSTYYADTVKGRYTISRDNAKYNVYLQMNSLKPEDTAVYYCATSVRGKSPYRKSGSYYYWGQGTQVTVSS | high polyreactivity
26 | QVQLVESGGGLVQAGGSLRLSCAASGSNFPYNAMGWYRQAPGKERELVAAITGRGGSTYYADSVKGRFTISRDNAKNTVYLHMNSLKPEDTAVYYCAAVTRNQGYYRYYYWGQGTQVTVSS | high polyreactivity
27 | QVQLVESGGGLVQAGGSLRLSCAASGRIFFVNAMGWYRQAPGKERELVAAISRGGTTYYADSVKGRFTISRDNAKNTVYLQMNSLKPEDTAVYYCNVAYTPSFYRYDYWGQGTQVTVSS | low polyreactivity
28 | QVQLVESGGGLVQAGGSLRLSCAASGIIFAYYAMGWYRQAPGKERELVGTNYADSVKGRFTISRDNAKNTVYLQMNSLKPEDTAVYYCAADFLYYSSGGKMDYWGQGTQVTVSS | low polyreactivity
29 | QVQLVESGGGLVQAGGSLRLSCAASGSTFDYYAMGWYRQAPGKERDLVAGITSDGSTDYADSVKGRFTISRDNAKNTVYLQMNSLKPEDTAVYYCAVDGDPVFYTTYYYSYYYWGQGTQVTVSS | low polyreactivity
30 | QVQLVESGGGLVQAGGSLRLSCAASGRIFVRYVMGWYRQAPGKERELVAAITKSGASTYYADSVKGRFTISRDNAKNTVYLQMNSLKPEDTAVYYCNRDLVDSYGYWGQGTQVTVSS | high polyreactivity
31 | QVQLVESGGGLVQAGGSLRLSSAASGSTFAYYAMGWYRQEPAKEGELVASISWRGGSTYYADSVKGRFTISRDNAKNTVYLQMNSLKPEDTAVYYCAARSTYRPWLLSAYGYWGQGTQVTVSS | low polyreactivity
